Results on two molecules are retold here after publication PMC12698191 (Molecular cell, 2025).

B1: purified human PSA (shorter isoform) (enzyme, UniProt P55786-1 45-919, looked up)
chain: MPEKRPFERLPADVSPINYSLCLKPDLLDFTFEGKLEAAAQVRQATNQIVMNCADIDIITASYAPEGDEEIHATGFNYQNEDEKVTLSFPSTLQTGTGTLKIDFVGELNDKMKGFYRSKYTTPSGEVRYAAVTQFEATDARRAFPCWDEPAIKATFDISLVVPKDRVALSNMNVIDRKPYPDDENLVEVKFARTPVMSTYLVAFVVGEYDFVETRSKDGVCVRVYTPVGKAEQGKFALEVAAKTLPFYKDYFNVPYPLPKIDLIAIADFAAGAMENWGLVTYRETALLIDPKNSCSSSRQWVALVVGHELAHQWFGNLVTMEWWTHLWLNEGFASWIEYLCVDHCFPEYDIWTQFVSADYTRAQELDALDNSHPIEVSVGHPSEVDEIFDAISYSKGASVIRMLHDYIGDKDFKKGMNMYLTKFQQKNAATEDLWESLENASGKPIAAVMNTWTKQMGFPLIYVEAEQVEDDRLLRLSQKKFCAGGSYVGEDCPQWMVPITISTSEDPNQAKLKILMDKPEMNVVLKNVKPDQWVKLNLGTVGFYRTQYSSAMLESLLPGIRDLSLPPVDRLGLQNDLFSLARAGIISTVEVLKVMEAFVNEPNYTVWSDLSCNLGILSTLLSHTDFYEEIQEFVKDVFSPIGERLGWDPKPGEGHLDALLRGLVLGKLGKAGHKATLEEARRRFKDHVEGKQILSADLRSPVYLTVLKHGDGTTLDIMLKLHKQADMQEEKNRIERVLGATLLPDLIQKVLTFALSEEVRPQDTVSVIGGVAGGSKHGRKAAWKFIKDNWEELYNRYQGGFLISRLIKLSVEGFAVDKMAGEVKAFFESHPAPSAERTIQQCCENILLNAAWLKRDAESIHQYLLQRKASPPTV
B2: purified human SWELL1 (homo-hexamer) (natural protein)
chain: MIPVTELRYFADTQPAYRILKPWWDVFTDYISIVMLMIAVFGGTLQVTQDKMICLPCKWVTKDSCNDSFRGWAAPGPEPTYPNSTILPTPDTGPTGIKYDLDRHQYNYVDAVCYENRLHWFAKYFPYLVLLHTLIFLACSNFWFKFPRTSSKLEHFVSILLKCFDSPWTTRALSETVVEESDPKPAFSKMNGSMDKKSSTVSEDVEATVPMLQRTKSRIEQGIVDRSETGVLDKKEGEQAKALFEKVKKFRTHVEEGDIVYRLYMRQTIIKVIKFILIICYTVYYVHNIKFDVDCTVDIESLTGYRTYRCAHPLATLFKILASFYISLVIFYGLICMYTLWWMLRRSLKKYSFESIREESSYSDIPDVKNDFAFMLHLIDQYDPLYSKRFAVFLSEVSENKLRQLNLNNEWTLDKLRQRLTKNAQDKLELHLFMLSGIPDTVFDLVELEVLKLELIPDVTIPPSIAQLTGLKELWLYHTAAKIEAPALAFLRENLRALHIKFTDIKEIPLWIYSLKTLEELHLTGNLSAENNRYIVIDGLRELKRLKVLRLKSNLSKLPQVVTDVGVHLQKLSINNEGTKLIVLNSLKKMANLTELELIRCDLERIPHSIFSLHNLQEIDLKDNNLKTIEEIISFQHLHRLTCLKLWYNHIAYIPIQIGNLTNLERLYLNRNKIEKIPTQLFYCRKLRYLDLSHNNLTFLPADIGLLQNLQNLAITANRIETLPPELFQCRKLRALHLGNNVLQSLPSRVGELTNLTQIELRGNRLECLPVELGECPLLKRSGLVVEEDLFNTLPPEVKERLWRADKEQA

What all share (test): cryo-EM structure
Data set [1] addresses B2.
The data set “cryo-EM structure” concerns the molecule itself.
The target of data set [2] is B1.

As a reminder, the stoichiometry N is a count of units in the complex or per binding partner. With B1, the “stoichiometry N” value in data set [1] was 3 PSA molecules per SWELL1 hexamer.

With B2, the “stoichiometry N” value in “cryo-EM structure” turned out to be 6. Further, the binding result in data set [2] was “binds”.
